{"source": "the Human Domainome abundance scans (Beltran et al. 2025)", "parents": {"B1": {"name": "Neutrophil cytosol factor 2, residues 456 to 514; numbered along this chain, P19878 (parent)", "chain": "LKKGSQVEALFSYEATQPEDLEFQEGDIILVLSKVNEEWLEGECKGKVGIFPKVFVEDC"}}, "note": "± gives the uncertainty stated by the source.", "data": [{"variants_of": "B1", "experiment": "abundance fitness (aPCA) (normalised: wild type 0, dead -1); higher = more abundant; growth selection in yeast, the domain comes from the species named", "conditions": "Homo sapiens", "values": [{"variant": "LKKGSQVEALFSYEATQPEDLEFQEGDIILVLSKVNEEWLEGECKGKVYIFPKVFVEDC", "note": "[G49Y]", "abundance fitness": "-0.503 ± 0.12"}, {"variant": "LKKGSQVEALFSYEATQPEDLEFQEGDIILVLSKVNEEWLEGECKGKVTIFPKVFVEDC", "note": "[G49T]", "abundance fitness": "-0.951 ± 0.25"}, {"variant": "LKKGSQVEALFSYEATQPEDLEFQEGDIILVLSKVNEEWLEGECKGKVRIFPKVFVEDC", "note": "[G49R]", "abundance fitness": "-0.758 ± 0.2"}, {"variant": "LKKGSQVEALFSYEATQPEDLEFQEGDIILVLSKVNEEWLEGECKGKVVIFPKVFVEDC", "note": "[G49V]", "abundance fitness": "-1.05 ± 0.18"}, {"variant": "LKKGSQVEALFSYEATQPEDLEFQEGDIILVLSKVNEEWLEGECKGKVWIFPKVFVEDC", "note": "[G49W]", "abundance fitness": "-0.137 ± 0.17"}, {"variant": "LKKGSQVEALFSYEATQPEDLEFQEGDIILVLSKVNEEWLEGECKGKVGIFTKVFVEDC", "note": "[P52T]", "abundance fitness": "-0.341 ± 0.14"}, {"variant": "LKKGSQVEALFSYEATQPEDLEFQEGDIILVLSKVNEEWLEGECKGKVGIFSKVFVEDC", "note": "[P52S]", "abundance fitness": "-0.585 ± 0.13"}, {"variant": "LKKGSQVEALFSYEATQPEDLEFQEGDIILVLSKVNEEWLEGECKGKVGIFFKVFVEDC", "note": "[P52F]", "abundance fitness": "-0.459 ± 0.18"}, {"variant": "LKKGSQVEALFSYEATQPEDLEFQEGDIILVLSKVNEEWLEGECKGKVGIFMKVFVEDC", "note": "[P52M]", "abundance fitness": "-0.253 ± 0.33"}, {"variant": "LKKGSQVEALFSYEATQPEDLEFQEGDIILVLSKVNEEWLEGECKGKVGIFYKVFVEDC", "note": "[P52Y]", "abundance fitness": "-0.738 ± 0.21"}, {"variant": "LKKGSQVEALFSYEATQPEDLEFQEGDIILVLSKVNEEWLEGECKGKVGIFDKVFVEDC", "note": "[P52D]", "abundance fitness": "-0.479 ± 0.21"}, {"variant": "LKKGSQVEALFSYEATQPEDLEFQEGDIILVLSKVNEEWLEGECKGKVGIFAKVFVEDC", "note": "[P52A]", "abundance fitness": "-0.305 ± 0.13"}, {"variant": "LKKGSQVEALFSYEATQPEDLEFQEGDIILVLSKVNEEWLEGECKGKVGIFGKVFVEDC", "note": "[P52G]", "abundance fitness": "-0.215 ± 0.11"}, {"variant": "LKKGSQVEALFSYEATQPEDLEFQEGDIILVLSKVNEEWLEGECKGKVGIFIKVFVEDC", "note": "[P52I]", "abundance fitness": "-0.766 ± 0.18"}, {"variant": "LKKGSQVEALFSYEATQPEDLEFQEGDIILVLSKVNEEWLEGECKGKVGIFRKVFVEDC", "note": "[P52R]", "abundance fitness": "-0.918 ± 0.21"}, {"variant": "LKKGSQVEALFSYEATQPEDLEFQEGDIILVLSKVNEEWLEGECKGKVGIFCKVFVEDC", "note": "[P52C]", "abundance fitness": "-0.51 ± 0.14"}, {"variant": "LKKGSQVEALFSYEATQPEDLEFQEGDIILVLSKVNEEWLEGECKGKVGIFQKVFVEDC", "note": "[P52Q]", "abundance fitness": "-0.645 ± 0.36"}, {"variant": "LKKGSQVEALFSYEATQPEDLEFQEGDIILVLSKVNEEWLEGECKGKVGIFEKVFVEDC", "note": "[P52E]", "abundance fitness": "-0.642 ± 0.37"}, {"variant": "LKKGSQVEALFSYEATQPEDLEFQEGDIILVLSKVNEEWLEGECKGKVGIFVKVFVEDC", "note": "[P52V]", "abundance fitness": "-0.598 ± 0.14"}, {"variant": "LKKGSQVEALFSYEATQPEDLEFQEGDIILVLSKVNEEWLEGECKGKVGIFLKVFVEDC", "note": "[P52L]", "abundance fitness": "-0.094 ± 0.12"}, {"variant": "LKKGSQVEALFSYEATQPEDLEFQEGDIILVLSKVNEEWLEGECKGKVGIFWKVFVEDC", "note": "[P52W]", "abundance fitness": "-0.953 ± 0.43"}, {"variant": "LKKGSQVEALFSYEATQPEDLEFQEGDIILVLSKVNEEWLEGECKGKVGIFKKVFVEDC", "note": "[P52K]", "abundance fitness": "-0.559 ± 0.33"}, {"variant": "LKKGSQVEALFSYEATQPEDLEFQEGDIILVLSKVNEEWLEGECKGKVGITPKVFVEDC", "note": "[F51T]", "abundance fitness": "-0.165 ± 0.12"}, {"variant": "LKKGSQVEALFSYEATQPEDLEFQEGDIILVLSKVNEEWLEGECKGKVGIEPKVFVEDC", "note": "[F51E]", "abundance fitness": "0.113 ± 0.19"}, {"variant": "LKKGSQVEALFSYEATQPEDLEFQEGDIILVLSKVNEEWLEGECKGKVGIWPKVFVEDC", "note": "[F51W]", "abundance fitness": "-0.739 ± 0.32"}, {"variant": "LKKGSQVEALFSYEATQPEDLEFQEGDIILVLSKVNEEWLEGECKGKVGIIPKVFVEDC", "note": "[F51I]", "abundance fitness": "-0.506 ± 0.14"}, {"variant": "LKKGSQVEALFSYEATQPEDLEFQEGDIILVLSKVNEEWLEGECKGKVGIGPKVFVEDC", "note": "[F51G]", "abundance fitness": "-0.425 ± 0.097"}, {"variant": "LKKGSQVEALFSYEATQPEDLEFQEGDIILVLSKVNEEWLEGECKGKVGILPKVFVEDC", "note": "[F51L]", "abundance fitness": "-0.735 ± 0.15"}, {"variant": "LKKGSQVEALFSYEATQPEDLEFQEGDIILVLSKVNEEWLEGECKGKVGIRPKVFVEDC", "note": "[F51R]", "abundance fitness": "-0.716 ± 0.17"}, {"variant": "LKKGSQVEALFSYEATQPEDLEFQEGDIILVLSKVNEEWLEGECKGKVGISPKVFVEDC", "note": "[F51S]", "abundance fitness": "-0.328 ± 0.096"}, {"variant": "LKKGSQVEALFSYEATQPEDLEFQEGDIILVLSKVNEEWLEGECKGKVGIAPKVFVEDC", "note": "[F51A]", "abundance fitness": "-0.63 ± 0.15"}, {"variant": "LKKGSQVEALFSYEATQPEDLEFQEGDIILVLSKVNEEWLEGECKGKVGIPPKVFVEDC", "note": "[F51P]", "abundance fitness": "-0.924 ± 0.47"}, {"variant": "LKKGSQVEALFSYEATQPEDLEFQEGDIILVLSKVNEEWLEGECKGKVGICPKVFVEDC", "note": "[F51C]", "abundance fitness": "-0.247 ± 0.11"}, {"variant": "LKKGSQVEALFSYEATQPEDLEFQEGDIILVLSKVNEEWLEGECKGKVGIMPKVFVEDC", "note": "[F51M]", "abundance fitness": "0.006 ± 0.21"}, {"variant": "LKKGSQVEALFSYEATQPEDLEFQEGDIILVLSKVNEEWLEGECKGKVGIVPKVFVEDC", "note": "[F51V]", "abundance fitness": "-0.342 ± 0.11"}, {"variant": "LKKGSQVEALFSYEATQPEDLEFQEGDIILVLSKVNEEWLEGECKGKVGINPKVFVEDC", "note": "[F51N]", "abundance fitness": "-0.584 ± 0.13"}, {"variant": "LKKGSQVEALFSYEATQPEDLEFQEGDIILVLSKVNEEWLEGECKGKVGIHPKVFVEDC", "note": "[F51H]", "abundance fitness": "-0.18 ± 0.15"}, {"variant": "LKKGSQVEALFSYEATQPEDLEFQEGDIILVLSKVNEEWLEGECKGKVGIYPKVFVEDC", "note": "[F51Y]", "abundance fitness": "-0.359 ± 0.11"}, {"variant": "LKKGSQVEALFSYEATQPEDLEFQEGDIILVLSKVNEEWLEGECKGKVGIFPKVAVEDC", "note": "[F55A]", "abundance fitness": "0.034 ± 0.11"}, {"variant": "LKKGSQVEALFSYEATQPEDLEFQEGDIILVLSKVNEEWLEGECKGKVGIFPKPFVEDC", "note": "[V54P]", "abundance fitness": "-0.459 ± 0.23"}, {"variant": "LKKGSQVEALFSYEATQPEDLEFQEGDIILVLSKVNEEWLEGECKGKVGIFPKEFVEDC", "note": "[V54E]", "abundance fitness": "-0.124 ± 0.34"}, {"variant": "LKKGSQVEALFSYEATQPEDLEFQEGDIILVLSKVNEEWLEGECKGKVGIFPKKFVEDC", "note": "[V54K]", "abundance fitness": "0.663 ± 0.15"}, {"variant": "LKKGSQVEALFSYEATQPEDLEFQEGDIILVLSKVNEEWLEGECKGKVGIFPKRFVEDC", "note": "[V54R]", "abundance fitness": "0.625 ± 0.082"}, {"variant": "LKKGSQVEALFSYEATQPEDLEFQEGDIILVLSKVNEEWLEGECKGKVGIFPKMFVEDC", "note": "[V54M]", "abundance fitness": "0.378 ± 0.12"}, {"variant": "LKKGSQVEALFSYEATQPEDLEFQEGDIILVLSKVNEEWLEGECKGKVGIFPKIFVEDC", "note": "[V54I]", "abundance fitness": "-0.079 ± 0.13"}]}]}
